Measurements from PMC9361823.

Columns and labels:
[1] = biological target: CumDO-O β1R65A (Pseudomonas fluorescens IP01) (UniProt Q51743)
[2] = biological target: CumDO-O α1K117A (Pseudomonas fluorescens IP01) (UniProt Q51743)
[3] = biological target: α3β3-type oxygenase component of cumene dioxygenase (CumDO-O), wild type (Pseudomonas fluorescens IP01) (UniProt Q51743)
[4] = biological target: CumDO-O α1K117A β2W100A (Pseudomonas fluorescens IP01) (UniProt Q51743)
[5] = biological target: CumDO-O β1R65A β2W100A (Pseudomonas fluorescens IP01) (UniProt Q51743)
[6] = biological target: CumDO-O α1K117A α1K141A (Pseudomonas fluorescens IP01) (UniProt Q51743)
[7] = biological target: CumDO-O α1K141A β1R65A (Pseudomonas fluorescens IP01) (UniProt Q51743)
[8] = biological target: CumDO-O α1K141A β2W100A (Pseudomonas fluorescens IP01) (UniProt Q51743)
[9] = biological target: CumDO-O α1K117A β1R65A (Pseudomonas fluorescens IP01) (UniProt Q51743)

Sequence of Rieske-type ferredoxin of cumene dioxygenase (CumDO-F) (Q51746 entry or part of it): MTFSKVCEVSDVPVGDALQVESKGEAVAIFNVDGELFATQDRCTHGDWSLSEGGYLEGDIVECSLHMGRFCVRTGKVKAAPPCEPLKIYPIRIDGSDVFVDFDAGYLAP

reduction efficiency by CumDO-F relative to WT CumDO-O (A457) [1]: 46% | reduction efficiency by CumDO-F relative to WT CumDO-O (A457) [2]: 21% | reduction efficiency of the Rieske cluster of CumDO-O by CumDO-F (initial rate of decrease of A457; purified CumDO-R, CumDO-F, CumDO-O and NADH) [3]: 100% | reduction efficiency by CumDO-F relative to WT CumDO-O (A457) [4]: < 20% | reduction efficiency by CumDO-F relative to WT CumDO-O (A457) [5]: < 20% | reduction efficiency by CumDO-F relative to WT CumDO-O (A457) [6]: < 20% | reduction efficiency by CumDO-F relative to WT CumDO-O (A457) [7]: < 20% | reduction efficiency by CumDO-F relative to WT CumDO-O (A457) [8]: 69% | reduction efficiency by CumDO-F relative to WT CumDO-O (A457) [9]: < 20%
Substance: Rieske-type ferredoxin of cumene dioxygenase (CumDO-F) (from UniProt Q51746 1-109) (natural protein)
